Assay results as given in patent US20250026842A1 (JIANGSU HENGRUI PHARMACEUTICALS, published 2025).
Read-outs that look alike come from different tables or passages of the source.

What was measured:
[1] = biological target: T1, human 4-1BB on the surface of HEK293-Hu4-1BB cells (human, UniProt Q07011 24-255); test: cell-based or functional assay
[2] = biological target: T1, human 4-1BB on the surface of …; test: cell-based or functional assay; remark: listed apart in the source
[3] = biological target: T1, human 4-1BB on the surface of …; test: FACS on HEK293 cells highly expressing human 4-1BB
Excerpt: (§1) HEK293-Hu4-1BB cells were obtained by transient transfection of HEK293 cells (ATCC CRL-1573) with a gene expressing human 4-1BB protein or polypeptide (CD137 cDNA ORF Clone, Human, C-OFPSpark tag; purchased from Sino Biological, Cat #HG10041-ACR). The cell culture medium was DMEM (Gibco, Cat #11995065) containing 10% fetal bovine serum. The experimental medium was sterile PBS (phosphate-buffered saline, pH 7.40) containing 2% fetal bovine serum. HEK293-Hu4-1BB cells were washed with the experimental medium twice and seeded into a 96-well U-bottom plate at 1×10⁵ HEK293-Hu4-1BB cells per well. Different concentrations of the anti-4-1BB single-domain antibody VHH-Fc samples to be tested were added. The cells were incubated at 4° C. for 1 h and then washed with the experimental medium twice. Then the goat anti-human IgG (H+L) Alexa Fluor 488 antibody (Thermo, Cat #A11013) was added. After two washes, fluorescence signal values were measured using a flow cytometer. Urelumab was used as a positive control.
The antigen-binding activity of the humanized antibodies was measured using a FACS assay as described in Example 2.

[4] = biological target: T1, human 4-1BB on the surface of …; test: FACS on HEK293 cells highly expressing human 4-1BB; remark: listed apart in the source
Excerpt: as §1
A comparison of the antigen-binding activity of C5_V2 and C5_V2-YTI was made using a FACS assay as described in Example 5.

T1 sequence (Q07011 24-255): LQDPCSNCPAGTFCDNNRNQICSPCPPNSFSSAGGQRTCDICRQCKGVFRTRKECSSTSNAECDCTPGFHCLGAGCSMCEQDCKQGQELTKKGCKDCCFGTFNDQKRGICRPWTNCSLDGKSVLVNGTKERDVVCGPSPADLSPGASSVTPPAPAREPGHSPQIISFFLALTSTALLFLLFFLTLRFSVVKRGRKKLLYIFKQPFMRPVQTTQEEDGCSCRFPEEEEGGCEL

B1: Urelumab (antibody, V domains shown)
VH: QVQLQQWGAGLLKPSETLSLTCAVYGGSFSGYYWSWIRQSPEKGLEWIGEINHGGYVTYNPSLESRVTISVDTSKNQFSLKLSSVTAADTAVYYCARDYGPGNYDWYFDLWGRGTLVTVSS
VL: EIVLTQSPATLSLSPGERATLSCRASQSVSSYLAWYQQKPGQAPRLLIYDASNRATGIPARFSGSGSGTDFTLTISSLEPEDFAVYYCQQRSNWPPALTFGGGTKVEIK
EC50, 4-1BB/NF-κB luciferase reporter, FcγRIIb cross-linking [1]: 0.027 nM
EC50, 4-1BB/NF-κB luciferase reporter, no FcγRIIb cross-linking [1]: 2.19 nM
Emax, 4-1BB/NF-κB luciferase reporter, FcγRIIb cross-linking [1]: 9.39 relative to antibody-free group
Emax, 4-1BB/NF-κB luciferase reporter, no FcγRIIb cross-linking [1]: 4.3 relative to antibody-free group
Factor of variation in Emax, FcγRIIb-mediated activation of HEK293-4-1BB cells [2]: 2.61 fold
Factor of variation in Emax, activation of HEK293-4-1BB cells [2]: 1.7 fold
EC50 [3]: 1.18 nM
Maximal fluorescence value [3]: 1000
EC50 [4]: 1.64 nM
Maximal fluorescence value [4]: 39700
